In the MegaScale stability set (Tsuboyama et al. 2023):

B1: EEHEE_rd4_0003 (parent)
chain: KKVTINGVEIKFNNPEEAVKFALELAKRLNLRIEFHGDQIKIE

Variants of: B1
Assay: folding stability dG (cDNA display proteolysis); higher = more stable
Details: PBS, room temperature

Row | Variant | folding stability dG [kcal/mol]
1 | KKVTINGVEIKFNNPEEAVKKALELAKRLNLRIEFHGDQIKIE [F21K] | 1.66
2 | KKVTINGVEIKFNNPEEAVKEALELAKRLNLRIEFHGDQIKIE [F21E] | 1.35
3 | KKVTINGVEIKFNNPEEAVKIALELAKRLNLRIEFHGDQIKIE [F21I] | 2.03
4 | KKVTINGVEIKFNNPEEAVKLALELAKRLNLRIEFHGDQIKIE [F21L] | 2.03
5 | KKVTINGVEIKFNNPEEAVKHALELAKRLNLRIEFHGDQIKIE [F21H] | 1.52
6 | KKVTINGVEIKFNQPEEAVKFALELAKRLNLRIEFHGDQIKIE [N14Q] | 2.06
7 | KKVTINGVEIKFNIPEEAVKFALELAKRLNLRIEFHGDQIKIE [N14I] | 2.36
8 | KKVTINGVEIKFNNPEEAVKFALELAKRLVLRIEFHGDQIKIE [N30V] | 2.29
9 | KKVTINGVEIKFNNPEEAVKFALELAKRLSLRIEFHGDQIKIE [N30S] | 2.2
10 | KKVTINGVEIKFNNPEEAVKFALELAKRLALRIEFHGDQIKIE [N30A] | 2.23
11 | KKVTINGVEIKFNNPEEAVKFALELAKRLMLRIEFHGDQIKIE [N30M] | 2.43
12 | KKVTINGVEIKFNNPEEAVKFALELAKRLILRIEFHGDQIKIE [N30I] | 2.34
13 | KKVTINGVEIKFNNPEEAVKFALELAKRLCLRIEFHGDQIKIE [N30C] | 3.46
14 | KKVTINGVEIKFNNPEEAVKFALELAKRLGLRIEFHGDQIKIE [N30G] | 2.65
15 | KKVTINGVEIKFNNPEEAVKFALELAKRLWLRIEFHGDQIKIE [N30W] | 2.72
16 | KKVTINGVMIKFNNPEEAVKFALELAKRLNLRIEFHGDQIKIE [E9M] | 2.62
17 | KKVTINGVRIKFNNPEEAVKFALELAKRLNLRIEFHGDQIKIE [E9R] | 2.36
18 | KKVTINGVFIKFNNPEEAVKFALELAKRLNLRIEFHGDQIKIE [E9F] | 2.53
19 | KKVTINGVEIKFNNNEEAVKFALELAKRLNLRIEFHGDQIKIE [P15N] | 2.45
20 | KKVTINGVEIKFNNPEEAVKFALELAKRYNLRIEFHGDQIKIE [L29Y] | 2.67

Row | Variant | folding stability dG [kcal/mol]
21 | KKVTINGVEIKFNNPEEAVKFALELAKRKNLRIEFHGDQIKIE [L29K] | 1.6
22 | KKVTINGVEIKFNNPEEAVKFALELAKRGNLRIEFHGDQIKIE [L29G] | 1.88
23 | KKVTINGVEIKRNNPEEAVKFALELAKRLNLRIEFHGDQIKIE [F12R] | 1.41
24 | KKVTINGVEIKSNNPEEAVKFALELAKRLNLRIEFHGDQIKIE [F12S] | 1.57
25 | KKVTINGQEIKFNNPEEAVKFALELAKRLNLRIEFHGDQIKIE [V8Q] | 2.25
26 | KKVTINGLEIKFNNPEEAVKFALELAKRLNLRIEFHGDQIKIE [V8L] | 2.51
27 | KKVTINGIEIKFNNPEEAVKFALELAKRLNLRIEFHGDQIKIE [V8I] | 2.74
28 | KKVTINGVEIKFNNPEEAVKFALELIKRLNLRIEFHGDQIKIE [A26I] | 2.3
29 | KKVTINGVEIKFNNPEEAVKFALELHKRLNLRIEFHGDQIKIE [A26H] | 1.47
30 | KKVTINGVEIKFNNPEEAVKFALELAKRLNLRIEFHGDQEKIE [I40E] | 1.44
31 | KKVTINGVEIKFNNPEEAVKFALELAKRLNLRIEFHGDQHKIE [I40H] | 1.56
32 | KKVTINGVEIKFNNPEEAVKFALELAKRLNLRIEFHGDQVKIE [I40V] | 2.07
33 | KKVTINGVEIKFNNPEEAVKFALELAKRLNLRIEFHGDQLKIE [I40L] | 2.1
34 | KKVTINGVEIKFNNPEEAVKFALELAKRLNLRIEFHGDQFKIE [I40F] | 1.78
35 | KKVTINGVEIKFNNPEEAVKFALELAKRLNLRIEFHGDQMKIE [I40M] | 1.92
36 | KKVTIIGVEIKFNNPEEAVKFALELAKRLNLRIEFHGDQIKIE [N6I] | 2.41
37 | KKVTISGVEIKFNNPEEAVKFALELAKRLNLRIEFHGDQIKIE [N6S] | 2.11
38 | KKVTIGGVEIKFNNPEEAVKFALELAKRLNLRIEFHGDQIKIE [N6G] | 2.5
39 | KKVTIFGVEIKFNNPEEAVKFALELAKRLNLRIEFHGDQIKIE [N6F] | 3.23
40 | KKVTINGVEIKFNNPEEAVKFPLELAKRLNLRIEFHGDQIKIE [A22P] | 0.416

Row | Variant | folding stability dG [kcal/mol]
41 | KKVTINGVEIKFNNPEEAVKFELELAKRLNLRIEFHGDQIKIE [A22E] | 0.979
42 | KKVTINGVEIKFNNPEEAVKFSLELAKRLNLRIEFHGDQIKIE [A22S] | 1.59
43 | KKVTINGVEIKFNNPEEAVKFGLELAKRLNLRIEFHGDQIKIE [A22G] | 1.58
44 | KKVTINGVEIKFNNPEEAVKFALELAKALNLRIEFHGDQIKIE [R28A] | 2.39
45 | KKVTINGVEIKFNNPEEAVKFALELAKGLNLRIEFHGDQIKIE [R28G] | 1.91
46 | KKVTINGVEIKFNNPEEAVKFALELAKILNLRIEFHGDQIKIE [R28I] | 2.54
47 | KKVTINGVEIKFNNPEEAVKFALELAKRLNLRIEFHGDQIKSE [I42S] | 1.47
48 | KKVTINGVEIKFNNPEEAVKFALELAKRLNLRIEFHGDQIKWE [I42W] | 1.58
49 | KKVTINGVEIKFNNPEEAVKFALELAKRLNLRIEHHGDQIKIE [F35H] | 1.88
50 | KKVTINGVEIKFNNPEEAVKFALELAKRLNLRIETHGDQIKIE [F35T] | 1.82
51 | KKVTINGVEIDFNNPEEAVKFALELAKRLNLRIEFHGDQIKIE [K11D] | 2.3
52 | KKVTINGVEIVFNNPEEAVKFALELAKRLNLRIEFHGDQIKIE [K11V] | 2.96
53 | KKVTINGVEIAFNNPEEAVKFALELAKRLNLRIEFHGDQIKIE [K11A] | 2.6
54 | KKVTINGVEIKFNNPEEAVKFALELAKRLNLRIEFHCDQIKIE [G37C] | 2.68
55 | KKVTINGVEIKFNNPEEAVKFALELAKRLNLRIEFHADQIKIE [G37A] | 2.39
56 | KKVTINGVEIKFNNPEEIVKFALELAKRLNLRIEFHGDQIKIE [A18I] | 2.45
57 | KKVTINGVEIKFNNPEEMVKFALELAKRLNLRIEFHGDQIKIE [A18M] | 2.47
58 | KKVTINGVEIKFNNPEEEVKFALELAKRLNLRIEFHGDQIKIE [A18E] | 1.47
59 | KKVTINGVEIKFNNPEEKVKFALELAKRLNLRIEFHGDQIKIE [A18K] | 1.52
